{"source": "paper PMC4828312", "about": "(Journal of neurochemistry, 2016)", "binders": {"B1": {"name": "Human recombinant tubulin β-3 (TUBB3) (natural protein)", "chain": "MREIVHIQAGQCGNQIGAKFWEVISDEHGIDPSGNYVGDSDLQLERISVYYNEASSHKYVPRAILVDLEPGTMDSVRSGAFGHLFRPDNFIFGQSGAGNNWAKGHYTEGAELVDSVLDVVRKECENCDCLQGFQLTHSLGGGTGSGMGTLLISKVREEYPDRIMNTFSVVPSPKVSDTVVEPYNATLSIHQLVENTDETYCIDNEALYDICFRTLKLATPTYGDLNHLVSATMSGVTTSLRFPGQLNADLRKLAVNMVPFPRLHFFMPGFAPLTARGSQQYRALTVPELTQQMFDAKNMMAACDPRHGRYLTVATVFRGRMSMKEVDEQMLAIQSKNSSYFVEWIPNNVKVAVCDIPPRGLKMSSTFIGNSTAIQELFKRISEQFTAMFRRKAFLHWYTGEGMDEMEFTEAESNMNDLVSEYQQYQDATAEEEGEMYEDDEEESEAQGPK"}}, "key": {"[1]": {"target": "B1", "assay": "SPR"}, "[2]": {"target": "HIV-1 envelope glycoprotein gp120, strain IIIB (HIV-1 (strain IIIB), UniProt P04578 33-511)", "assay": "SPR"}}}
{"binder": "NDMVEQMHEDIISLWDQSLK", "note": "[Helix-A peptide of gp120]", "values": [{"measurement": "binding result", "setting": "[1]", "result": "binds"}]}
{"binder": "B1", "values": [{"measurement": "Kd", "setting": "[2]", "result": 7.5, "unit": "nM"}]}
